Laboratory results: patent US20210253716A1 (Regeneron, published 2021)

T1: full length human ACVR1 (R206H) on HEK293/BRE-luc/hACVR1-R206H-clone H2 cells (human, UniProt Q04771 21-509)
T1 construct: also called HEK293/hACVR1-R206H
T1 sequence: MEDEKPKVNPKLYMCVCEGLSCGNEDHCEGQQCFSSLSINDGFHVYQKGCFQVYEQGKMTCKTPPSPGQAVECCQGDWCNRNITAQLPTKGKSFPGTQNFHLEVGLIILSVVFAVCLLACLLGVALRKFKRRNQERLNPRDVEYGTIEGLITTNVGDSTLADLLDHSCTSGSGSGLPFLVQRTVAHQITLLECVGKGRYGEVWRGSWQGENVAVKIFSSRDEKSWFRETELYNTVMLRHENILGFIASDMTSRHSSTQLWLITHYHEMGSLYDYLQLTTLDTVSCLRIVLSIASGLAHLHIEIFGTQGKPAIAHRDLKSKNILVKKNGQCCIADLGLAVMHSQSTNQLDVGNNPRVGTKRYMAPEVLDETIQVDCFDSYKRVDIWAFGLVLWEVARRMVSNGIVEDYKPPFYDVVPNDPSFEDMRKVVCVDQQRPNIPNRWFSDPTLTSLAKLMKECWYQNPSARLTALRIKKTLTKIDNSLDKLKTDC

T2: human ACVR1 extracellular domain expressed with a C-terminal mouse IgG2a Fc tag (human)
T2 construct: also called hACVR1-mFc
T2 chain: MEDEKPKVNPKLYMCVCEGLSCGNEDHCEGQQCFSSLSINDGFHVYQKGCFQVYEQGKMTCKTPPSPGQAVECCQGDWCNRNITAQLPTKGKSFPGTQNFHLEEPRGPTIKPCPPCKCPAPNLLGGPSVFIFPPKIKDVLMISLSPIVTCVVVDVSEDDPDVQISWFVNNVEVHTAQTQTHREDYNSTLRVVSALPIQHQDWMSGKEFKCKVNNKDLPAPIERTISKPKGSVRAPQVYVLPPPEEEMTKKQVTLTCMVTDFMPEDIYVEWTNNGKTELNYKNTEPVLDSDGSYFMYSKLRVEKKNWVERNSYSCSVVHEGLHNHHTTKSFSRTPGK

T3: mouse ACVR1 extracellular domain expressed with a C-terminal myc-myc-hexahistidine tag (mouse)
T3 construct: also called mACVR1-MMH; mACVR1-mmh
T3 chain: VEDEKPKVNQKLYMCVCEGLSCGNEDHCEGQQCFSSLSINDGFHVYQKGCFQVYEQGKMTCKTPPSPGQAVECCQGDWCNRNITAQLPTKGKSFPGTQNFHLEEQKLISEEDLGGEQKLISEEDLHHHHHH

T4: human ACVR1 extracellular domain expressed with a C-terminal myc-myc-hexahistidine tag (human)
T4 construct: also called hACVR1-MMH
T4 chain: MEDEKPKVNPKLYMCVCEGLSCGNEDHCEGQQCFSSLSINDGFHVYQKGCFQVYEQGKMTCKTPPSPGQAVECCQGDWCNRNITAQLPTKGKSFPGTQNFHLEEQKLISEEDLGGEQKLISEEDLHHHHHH

B1: mAb29226 (antibody, human IgG4 S228P, kappa, V domains shown)
VH: EVQLVESGGGLVQPGRSLRLSCAASGFTFDDYGMHWVRQAPGKGLEWVSVISWNSATIDYADSVKGRFTISRDNAKNSLFLQMNSLRPEDTALYYCAKKNSLGWFFDYWGQGTLVTVSS
VL: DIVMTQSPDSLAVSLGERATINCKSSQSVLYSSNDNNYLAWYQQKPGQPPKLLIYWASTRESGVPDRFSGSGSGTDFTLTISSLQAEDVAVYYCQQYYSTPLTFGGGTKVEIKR
B2: mAb29266 (antibody, human IgG4 S228P, kappa, V domains shown)
VH: QVQLVESGGGVVQPGRSLRLSCEVSGFTFSNYGMHWVRQAPGKGLEWVAVVSYDGSNKYYTDSVKGRFTISRDNSKNTLSLQMNSLRAEDTAVYYCAKDRGITGTSGGVFDIWGQGTMVTVSS
VL: AIRMTQSPSSFSATTGDRVTITCRASQGISSHLAWYQQKPGKAPKFLIYVASTLQSGVPSRFSGSGSGTDFTLTISSLQSEDFATYYCQQYYSYPPTFGQGTKVEIKR
B3: mAb27247 (antibody, human IgG4 S228P, kappa, V domains shown)
VH: EIQLVESGGDLVQPGGSLKLSCAASGFTFSDSAMHWVRQASGKGLEWVGRIRNKANTYATSYAASVKGRFTVSTDDSKTTAYLQMRYLKIEDTAIYYCTSDQFDYWGQGTLVTVSS
VL: DVVMTQSPLSLSATLGQPASISCRSSQSLVYSDGITYLTWFQQRPGQSPTRLIYQVSNRDSGVPDRFNGSGSGTDFTLNISRVEAEDVGFYYCMEGTHWPWTFGQGTKVELKR
notes: also called H4H27247
B4: mAb29233 (antibody, human IgG4 S228P, kappa, V domains shown)
VH: QVQLVQSGAEVKKPGASVKVSCKASGYTFTSYGISWVRQAPGQGLEWMGWISAYNGNTIYAQKFQGRVTMTTDTSTSTAYMELRSLRSDDTAVYYCARDINWYFDLWGRGTLVTVSS
VL: DIQMTQSPSSLSASVGDRVTITCRASQGIRNDLGWFQQKPGKAPKRLIYAASSLQSGVPSRFSGSGSGTEFTLTISSLQPEDFATYYCLQHNSYPWTFGQGTKVEIKR
B5: mAb29256 (antibody, human IgG4 S228P, kappa, V domains shown)
VH: EVQLVESGGNLVQPGGSLRLSCAASGFTFSNYAMSWVRQAPGKGLEWVSGITGNGVNTYYSVSVKGRFTISRDNSKNTLFLEMNSLRAEDTAIYYCVKERGHSWFGDWFDPWGQGTLVTVSS
VL: DIQMTQSPSSLSASVGDRVTITCRSSQSVISYLNWYQQKPGKAPKLLIFGASSLISGVPSRFSGSGSGTDFTLTIVSLQPEDFAVYFCQQNYLPPLTFGGGTKVEIKR
notes: also called mAb29256P
B6: mAb29261 (antibody, human IgG4 S228P, kappa, V domains shown)
VH: EVQLVESGGNLVQPGGSLRLSCAASGFTFSNYAMSWVRQAPGKGLEWVSGITGNGINTYYSVSVKGRFTISRDNSKNTVFLQMNSLRAEDTAIYYCVKERGHSWFGDWFDPWGQGTLVTVSS
VL: DIQMTQSPSSLSASVGDRVTITCRASQGIRNDLGWYQQKPGKAPKRLIYAASSLQSGVPSRFSGSGSGTEFTLTISSLQPEDFATYYCLQHNSYPWTFGQGTKVEIKR

Tests used:
[1] = target: T1, full length human ACVR1 (R206H) on …; test: flow cytometry, 70 nM antibody, HEK293/hACVR1-R206H cells
Description: Cells were fixed using BD CytoFix™ (Becton Dickinson, #554655) and analyzed on either Hypercyt® or IQue® Flow Cytometers (Intellicyt®). Unstained and secondary antibody alone controls were also tested for all cell lines. The results were analyzed using ForeCyt® (IntelliCyt®) software to determine the geometric means of fluorescence for viable cells and binding ratios were calculated by normalizing the geometric mean value of the test condition by the geometric mean value of the corresponding unstained cells.

[2] = target: T1, full length human ACVR1 (R206H) on …; test: cell-based or functional assay
[3] = target: T2, human ACVR1 extracellular domain …; test: SPR (Biacore), mAb captured, 37 C
Description: (§1) Equilibrium dissociation constants (KD) for ACVR1 binding to purified anti-ACVR1 monoclonal antibodies were determined using a real-time surface plasmon resonance biosensor (SPR-Biacore), Biacore 4000. All binding studies were performed in 10 mM HEPES, 150 mM NaCl, 3 mM EDTA, and 0.05% v/v surfactant Tween-20, pH 7.4 (HBS-ET) running buffer at 25° C. and 37° C. The Biacore CM5 sensor surface was first derivatized by amine coupling with a monoclonal mouse anti-human Fc antibody (GE, #BR-1008-39 or REGN2567) to capture anti-ACVR1 monoclonal antibodies. […] ACVR1 reagents were then injected over anti-human Fc captured anti-ACVR1 monoclonal antibody surface for 2.5-3 minutes at a flow rate of 30 μL/minute, while the dissociation of monoclonal antibody bound ACVR1 reagent was monitored for 10-15 minutes in HBS-ET running buffer. Kinetic association rate constant (kₐ) and dissociation rate constant (kd) were determined by fitting the real-time sensorgrams to a 1:1 binding model using Scrubber 2.0c curve-fitting software. Binding dissociation equilibrium constants (KD) and dissociative half-lives (t½) were calculated from the kinetic rate constants as: […]

[4] = target: T3, mouse ACVR1 extracellular domain …; test: SPR (Biacore), mAb captured, 37 C
Description: as §1

[5] = target: T4, human ACVR1 extracellular domain …; test: SPR (Biacore), mAb captured, 37 C
Description: as §1

[6] = target: T2, human ACVR1 extracellular domain …; test: SPR (Biacore), mAb captured, 25 C
Description: as §1

[7] = target: T3, mouse ACVR1 extracellular domain …; test: SPR (Biacore), mAb captured, 25 C
Description: as §1

[8] = target: T4, human ACVR1 extracellular domain …; test: SPR (Biacore), mAb captured, 25 C
Description: as §1

| Binder | MFI - Normalized to Unstained Control [1] [fold] | 100 nM Ag Bound (RU) [3] [RU] | Kd [3] [nM] | koff [3] [s⁻¹] | kon [3] [M⁻¹ s⁻¹] | t½ [3] [min] | 900 nM or 100 nM Ag Bound (RU) [4] [RU] | 900 nM or 100 nM Ag Bound (RU) [5] [RU] | Kd [5] [nM] | koff [5] [s⁻¹] | kon [5] [M⁻¹ s⁻¹] | t½ [5] [min] | 100 nM Ag Bound (RU) [6] [RU] | Kd [6] [nM] | koff [6] [s⁻¹] | kon [6] [M⁻¹ s⁻¹] | t½ [6] [min] | 900 nM or 100 nM Ag Bound (RU) [7] [RU] | binding result [7] | 900 nM or 100 nM Ag Bound (RU) [8] [RU] | further results |
| --- | --- | --- | --- | --- | --- | --- | --- | --- | --- | --- | --- | --- | --- | --- | --- | --- | --- | --- | --- | --- | --- |
| B1 | 1900 | 212 | 1.53 | 0.000521 | 340000 | 22 | 2 | 68 | 25 | 0.00456 | 182000 | 2.5 | 188 | 0.767 | 0.000161 | 210000 | 72 | 2 | no binding (tested: 900 nM or 100 nM) | 57 | % Inhibition, BRE-luc reporter, 2 nM hBMP7 [2]: 70%; IC50 [M], BRE-luc reporter, 2 nM hBMP7 [2]: 7.3e-10 M; Kd [8]: 8.27 nM; koff [8]: 0.000937 s⁻¹; kon [8]: 113000 M⁻¹ s⁻¹; t½ [8]: 12 min |
| B2 | 1640 | 205 | 3.88 | 0.000911 | 235000 | 13 | – | 38 | 191 | 0.0299 | 156000 | 0.39 | 178 | 5.43 | 0.00062 | 114000 | 19 | – | – | 44 | % Inhibition, BRE-luc reporter, 2 nM hBMP7 [2]: 93%; IC50 [M], BRE-luc reporter, 2 nM hBMP7 [2]: 1.9e-09 M; Kd [8]: 109 nM; koff [8]: 0.00679 s⁻¹; kon [8]: 62100 M⁻¹ s⁻¹; t½ [8]: 1.7 min |
| B3 | 1660 | 219 | 1.39 | 0.000515 | 371000 | 22 | 4 | 67 | 19.3 | 0.00404 | 209000 | 2.9 | 186 | 0.787 | 0.00018 | 229000 | 64 | 3 | no binding (tested: 900 nM or 100 nM) | 52 | Kd [8]: 10.4 nM; koff [8]: 0.00119 s⁻¹; kon [8]: 115000 M⁻¹ s⁻¹; t½ [8]: 10 min |
| B4 | 5 | 3 | – | – | – | – | 1 | 3 | – | – | – | – | 2 | – | – | – | – | 1 | no binding (tested: 900 nM or 100 nM) | 1 | binding result [6]: no binding (tested: 100 nM); binding result [8]: no binding (tested: 900 nM or 100 nM) |
| B5 | 3 | 3 | – | – | – | – | 0 | 0 | – | – | – | – | -1 | – | – | – | – | -3 | – | -2 | – |
| B6 | 2 | – | – | – | – | – | 2 | 5 | – | – | – | – | – | – | – | – | – | -1 | – | 0 | binding result [5]: no binding (tested: 900 nM or 100 nM) |
